Assay results published in article PMC12748588, “Cryo-EM structures of plant Augmin reveal coiled-coil assembly, antiparallel dimerization, and NEDD1 binding” (Nature Communications, 2025).
Values belong to the molecule of their own block, whether it stands above or below them.

What was measured:
Test in all cases: SEC-MALS + other: mass photometry; co-expressed assemblies purified by Ni-IDA (AUG5 His tag), Q-FF and gel filtration; subunits confirmed by SDS-PAGE and mass spectrometry; SEC-MALS on Superdex 200 Increase 10/300, 200 µL at 1 mg/mL, 50 mM HEPES pH 7.5, 200 mM KCl, 1 mM MgCl2, 1 mM EGTA
[1] = biological target: AUG5 with C-terminal 8xHis tag (subunit of the hetero-octamer) (A. thaliana) (UniProt Q9FMB4)
[2] = biological target: T1, AUG5 with C-terminal GFP and His tags (subunit of the hetero-tetramer) (A. thaliana, UniProt Q9FMB4 1-796); details: both partners purified
T1 construct: AUGMIN subunit 5 (AUG5), A. thaliana; subunit ORF in the four-subunit polycistronic vector; Subunit of m2; source: E. coli SoluBL21, co-expressed with AUG1, AUG3 and AUG4, purified as part of the assembly (Ni-IDA, Q-FF, Superdex 200); not shown: His tag, C-terminal, kept
T1 sequence (looked up): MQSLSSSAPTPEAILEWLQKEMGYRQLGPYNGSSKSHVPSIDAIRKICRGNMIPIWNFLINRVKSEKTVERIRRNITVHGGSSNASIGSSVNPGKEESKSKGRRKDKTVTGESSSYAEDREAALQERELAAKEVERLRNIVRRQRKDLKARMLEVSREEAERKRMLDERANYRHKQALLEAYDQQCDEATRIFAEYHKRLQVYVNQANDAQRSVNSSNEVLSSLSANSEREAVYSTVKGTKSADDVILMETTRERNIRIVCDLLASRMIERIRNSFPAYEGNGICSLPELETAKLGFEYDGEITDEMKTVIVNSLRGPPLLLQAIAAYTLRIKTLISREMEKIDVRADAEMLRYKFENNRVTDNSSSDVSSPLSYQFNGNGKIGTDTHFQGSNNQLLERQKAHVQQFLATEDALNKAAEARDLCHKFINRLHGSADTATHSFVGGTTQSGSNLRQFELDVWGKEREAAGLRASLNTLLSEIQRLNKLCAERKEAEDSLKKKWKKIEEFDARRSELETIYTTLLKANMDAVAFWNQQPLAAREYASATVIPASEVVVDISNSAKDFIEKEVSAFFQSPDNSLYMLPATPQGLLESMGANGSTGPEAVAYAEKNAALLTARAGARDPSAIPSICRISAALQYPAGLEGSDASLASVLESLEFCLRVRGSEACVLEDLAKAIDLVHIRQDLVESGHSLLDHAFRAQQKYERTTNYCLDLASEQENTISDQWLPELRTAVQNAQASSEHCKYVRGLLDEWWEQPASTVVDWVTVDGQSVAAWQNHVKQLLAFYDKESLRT

[3] = biological target: T2, AUG5 with C-terminal 8xHis tag (subunit of the hetero-octamer) (A. thaliana, UniProt Q9FMB4 1-796); details: both partners purified
T2 construct: AUGMIN subunit 5 (AUG5), A. thaliana; subunit ORF in pET3a, assembled into the eight-subunit polycistronic vector; Subunit of m1; the assembly was captured on Ni-IDA by this chain; also called AUG5 (His); not shown: His8, C-terminal, kept
T2 sequence (looked up): T1 sequence (looked up)

stoichiometry N (subunit per assembly) [1]: 1
Molecule: AUG8 C-terminal region (residues 383-644) (from UniProt Q9SUH5 383-644) (domain or fragment)

stoichiometry N [2]: 1 subunit per assembly
stoichiometry N [3]: 1 subunit per assembly
B1: AUG3 (A. thaliana Augmin subunit 3) (natural protein, UniProt Q0WQE7 1-617, looked up)
chain: MSSARLCSLVAELGYEGAGKLDPDSFEWPFQYDDARPILDWICSSLRPSNVLSLAELSLYEQFQRDGKLLEGDDLDQAYDSISAFSSRRNNQEAVFGAEESIKEVRDATLAHKAEALELQRQLRRLQTQYDLLTGQSSALIQGRRARVAATSAVSGQITAIEDSLSARNLQMNGVLGRLASTSQELAHYHSGEEDGIYLAYSDFHAYLAGDSACTKELNQWFAKQLDTGPYRLVAEEGKSKCSWVSLDDTSNMLRDLEKSQHQRVAELQRLRSIFGTSERQWIEAQVENAKQQAILLTLKSQVTSVEAHIHFDLHSLRRKHADLVEEISTLYQKEEKLLSETIPELCWELAQLQDTYILQGDYDLKVMRQELYISKQKVFINHLVNQLARHQFLKLACQLEKKNMLGAFSLLKVIESELQGYLSATRSRVGRCSALIQAASDVQEQGAVDDRDSFLHGVRDLLSIHSNTQAGLSTYVSAPAIIQQIVALQSDLSSLQSDLENSLPDDRNRCINELCTHIQNLQQLLFASSTTAQPILTPWPLMKELDEMGKINSKLSTAVEEVTLEHRNKREIVKHHAKDVELQRRVFVDFFCNPERLRNQVRELNALVRARQASSS
notes: AUGMIN subunit 3 (AUG3), A. thaliana; subunit ORF in pET3a, assembled into polycistronic vectors; Subunit of m1 and m2; source: E. coli SoluBL21, co-expressed with the other Augmin subunits, purified as part of the assembly

stoichiometry N [3]: 1 subunit per assembly
B2: AUG2 (A. thaliana Augmin subunit 2) (natural protein, UniProt O48767 1-296, looked up)
chain: MSMGGDTTWVGKKPIRRIGGLSDALSIASDLGFAVAPPPSQEELQSFASSNGERGDDLIRVLRELSVVQRKIADLQVELQGRKDDKNVAHLTHVGEMQKKIETLSRITQILKDVIQNKDRIIARLQQPYSLDCIPVEAEYQKQFSELLMKAASDYGALTASVSDFQWSQNFKEPPSVWGEMLRPIPVALASCTRFFEAMSAMRESFATLQELRVGNSAVSLPTTPGGNEMTHRDSDCVTPPQGRIESSFDDLAVHKTRRQNNDQNEEEEEEEEEEDGNNNGNRRLSWPPSVKKSSV
notes: AUGMIN subunit 2 (AUG2), A. thaliana; codon-optimised ORF in pET3a, assembled into a polycistronic vector; Subunit of m1; source: E. coli SoluBL21, co-expressed with the other Augmin subunits, purified as part of the assembly

stoichiometry N [2]: 1 subunit per assembly
stoichiometry N [3]: 1 subunit per assembly
B3: AUG1 (A. thaliana Augmin subunit 1) (natural protein, UniProt F4IK01 1-299, looked up)
chain: MSDVTGDLAAVSEAKGGSDAARISEVKAWLTSQFEAVGKEVPNFEYTHRSITHLYNLATASQAKSQAATIVANDFRLKASEYRAQAARIREILESAGMSQESLPSNVVSSAQVLANVANLLNIRDTELSSFLVAMGDISLRKTGVEEKRAKAQKESNALLDYTRKAIQRLTYLKKILAQLEDDVVPCESQMENWKTNLEVMAVKEEQYIQQYKKYEQMLLNRVGYTPKISHRELVEMAEHRKELDKMTKPVLDTLRSYQDLPPDKALAALAIEDKKRQFTAAEKYLEEVLQSALETNDE
notes: AUGMIN subunit 1 (AUG1), A. thaliana; subunit ORF in pET3a, assembled into polycistronic vectors; Subunit of m1 and m2; source: E. coli SoluBL21, co-expressed with the other Augmin subunits, purified as part of the assembly

stoichiometry N [3]: 1 subunit per assembly
B4: AUG6 with C-terminal StrepII tag (natural protein, A. thaliana, UniProt Q94BP7 1-741, looked up)
chain: MTMDREKERELELESAMYTNCLLLGLDPNVIGLGASNGTPRVGLFRHSNPKLGEQLLYFILSSLRGPAQSSKDFDKVWPIFDSAQSRDFRKVVQAIISELESQGALPRSNSRVSSLATCCGPRFVELLWQLSLHALREVHRRTFPADVASNPLPSSLTDVSFSHAATLLPVTKARIVLERRRFLKNAETAVQRQAMWSNLAHEMTAEFRGLCAEEAYLQQELEKLNDLRNKVKQEGEVWDDLVSSSSQNSHLVSKATRLWDSIMARKGQHEVLASGPIEDLIAHREHRYRISGSALLAAMDQSSQVPRAELLSAHSDDSASLADDKELSDGSYTNMHDHSLVDSFETASSQASDETLSRVDDRGGKINQTVDVAEVIRRWTHALQRIHKQSLLLAKANDGDGPDILRTASDGGTSGHVESLAATLTEHQQHLASFQVLINQLKEVSPAIQKSISECTEMVNSLPPTLPPVTRSNGQASSLLQSQGSGRIMEGVSNDVAELTSTMSNVQLEKVSASPTLKLPQLFSSTPTSSGKGGNGQKRQTMASQVNKMESLSEKNSTDQALSNARPDNLPTDTSSSFVHNLKKSVREAALLIPSSAGSSRDSQSDEGSEHYFVPLSATGFSRFPSETKALPLRGSRALTSLSEPSFLEPNVPDSFAPSKYSDIPDTYDDLDSFKDYDNGNGFLSVAGSNSVASDAQQSFYDIDDQVFSPPLLMDSSLLSDAYEDLLAPLSETEAALMEH
notes: AUGMIN subunit 6 (AUG6), A. thaliana; ORF in pET3a, assembled into a polycistronic vector; N-terminal CH domain; its C-terminal region is prone to degradation; Subunit of m1; also called AUG6-StrepII; source: E. coli SoluBL21, co-expressed with the other Augmin subunits, purified as part of the assembly

stoichiometry N [3]: 1 subunit per assembly
B5: AUG7 (A. thaliana Augmin subunit 7) (natural protein, UniProt Q0WTP1 1-329, looked up)
chain: MAAKQMEEIQKKLRLLSYPRANAPAQSLLFAGMERYALLEWLFFKLLGDKSPFSQQNLQGDAGVRDEETVRIQYLAEIAKFLGITPTVDIEAIQGHGTYEDRMEMLRNIVDLVEASLFSDNQEWSIDEQVAKDIQLIDAIAERQSLIFSEECKLFPADVQIQSIYPLPDVSELETKLSEQAKILSNLQQKVDDLAAKHAYNPDEEYTEVESQLRARLESFLETARAFNTIYTKEIRPWTHMMEVPQLHGFGPAANRLLEAYNMLLKFLGNLKNLRDSHAALSIGSSGTVAGEPSSVTRIVSDCEAALTVLNRDLGILSASIAREQGERL
notes: AUGMIN subunit 7 (AUG7), A. thaliana; codon-optimised ORF in pET3a, assembled into a polycistronic vector; N-terminal CH domain; Subunit of m1; source: E. coli SoluBL21, co-expressed with the other Augmin subunits, purified as part of the assembly

stoichiometry N [2]: 1 subunit per assembly
stoichiometry N [3]: 1 subunit per assembly
B6: AUG4 (A. thaliana Augmin subunit 4) (natural protein, UniProt Q8GYM3 1-423, looked up)
chain: MVKALQGAAQNLPADVNQLIDQLERHCLAPDGSLVTKSVYSDLQLAREEMSRERLRYLEAMAIYCEAVAMVEEYQQAISVANHGGIRDVQGLYPQLGLKNSPQVYETLEHRLVVAEAAQKLRLPLISDGGEIHEEEIEKWSILSRSSLDSASTSFTISSTSNSVNYANSSANSVAGGISLSAVDTDVVGGVPNRFLGITPAYLSYVQLQNTISMDMADYQMFLAREIEGRLKEKCDKLADAIVDDTDSSTGNRNSSARLPERVKFIIEEIERDEAALREDLYSADRKFAEYYNVLEQILGVLIKLVKDLKLEHQHKYNEMQKTWLCKRCETMNAKLRVLENVLLLETYTPDSISALHNIRNYLVEATEEASAAYNKAVTRLREYQGVDPHFDTIARQYHDIVKKLENMQWTIHQVEMDLKSHD
notes: AUGMIN subunit 4 (AUG4), A. thaliana; subunit ORF in pET3a, assembled into polycistronic vectors; Subunit of m1 and m2; source: E. coli SoluBL21, co-expressed with the other Augmin subunits, purified as part of the assembly
